From patent US20110256132A1 (published 2011) come the findings set out here.

* marks the point of attachment. Biotin = O=C1N[C@H]2[C@H](CS[C@H]2CCCCC(=O)*)N1

For experiment [1], the target named is T1, mature myostatin (recombinant, dimeric) (mouse polyprotein used for in-house …, UniProt O08689 268-376).
T1 sequence: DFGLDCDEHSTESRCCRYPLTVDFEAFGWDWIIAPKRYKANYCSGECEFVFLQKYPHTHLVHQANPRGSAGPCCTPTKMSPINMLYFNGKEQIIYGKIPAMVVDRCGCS
In words: cell-based or functional assay.

The target of experiment [2] is T1, mature myostatin (recombinant, dimeric). Kind of experiment: cell-based or functional assay. The source holds these as a separate data set.
Experiment [3] concerns the target T2, artificial myostatin linear peptide 39 (SMILES …).
T2 construct: also called Peptide No 39
T2 peptide: Biotin-SGSGTKMSPINMLYFNGK-NH2
In words: SRU BIND reader, peptides captured on streptavidin biosensor plate. How it is done:
(§1) Work was carried out on an SRU BIND reader (SRU Biosystems). A streptavidin biosensor plate was washed, a baseline reading taken, and biotinylated peptides captured onto the streptavidin coated biosensor plate. The plate was washed again, and a new baseline reading taken, antibody was then added and binding monitored.

In experiment [4] the target is T3, artificial myostatin linear peptide 9 (SMILES …).
T3 construct: also called Peptide No 9
T3 peptide: Biotin-SGSGRYPLTVDFEAFGWD-NH2
Described as above. Here is the method:
as §1

Experiment [5] deals with T4, artificial myostatin linear peptide 43 (SMILES …).
T4 construct: also called Peptide No 43
T4 peptide: Biotin-SGSGLYFNGKEQIIYGKI-NH2
The experiment is described as above. Here is the method:
as §1

Experiment [6] concerns the target T5, artificial myostatin linear peptide 23 (SMILES …).
T5 construct: also called Peptide No 23
T5 peptide: Biotin-SGSGGECEFVFLQKYPHT-NH2
Described as above. How it is done:
as §1

The target in experiment [7] is T6, artificial myostatin linear peptide 33 (cysteine pairing not given here).
T6 construct: also called Peptide No 33
T6 peptide: Biotin-SGSGNPRGSAGPCCTPTK-NH2
The experiment is described as above. How it is done:
as §1

Experiment [8] addresses T7, artificial myostatin linear peptide 13 (SMILES …).
T7 construct: also called Peptide No 13
T7 peptide: Biotin-SGSGEAFGWDWIIAPKRY-NH2
The experiment is described as above. Here is the method:
as §1

For experiment [9], the target named is T8, artificial myostatin linear peptide 11 (SMILES …).
T8 construct: also called Peptide No 11
T8 peptide: Biotin-SGSGTVDFEAFGWDWIIA-NH2
Described as above. How it is done:
as §1

Experiment [10] concerns the target T9, artificial myostatin linear peptide 45 (SMILES …).
T9 construct: also called Peptide No 45
T9 peptide: Biotin-SGSGGKEQIIYGKIPAMV-NH2
The experiment is described as above. How it is done:
as §1

In experiment [11] the target is T10, artificial myostatin linear peptide 37 (cysteine pairing not given here).
T10 construct: also called Peptide No 37
T10 peptide: Biotin-SGSGCCTPTKMSPINMLY-NH2
The description is as above. Here is the method:
as §1

Experiment [12] has as its target T11, artificial myostatin linear peptide 49 (cysteine pairing not given here).
T11 construct: also called Peptide No 49
T11 peptide: Biotin-SGSGGKIPAMVVDRCGCS-OH
The experiment is described as above. Here is the method:
as §1

Experiment [13] addresses T12, artificial myostatin linear peptide 5 (cysteine pairing not given here).
T12 construct: also called Peptide No 5
T12 peptide: Biotin-SGSGHSTESRCCRYPLTV-NH2
Described as above. How it is done: as §1

For experiment [14], the target named is T1, mature myostatin (recombinant, dimeric). In words: BIAcore T100, antibody captured on anti-mouse IgG (C1 chip), myostatin analyte, all curves Bivalent model. How it is done: (§2) The affinity of 10B3 mouse parental and 10B3C for recombinant myostatin was assessed by BIAcore™ (surface plasmon resonance) analysis. Analysis was carried out by the use of a capture surface: anti-mouse IgG was coupled to a C1 chip by primary amine coupling for 10B3 mouse parental; and a protein A surface was created on a C1 chip by primary amine coupling for 10B3 chimera.
(§3) After capture, recombinant myostatin was passed over the surface at 64 nM, 16 nM, 4 nM, 1 nM, 0.25 nM and 0.0625 nM, with a buffer injection (i.e. 0 nM) used for double referencing. There was a regeneration step between each analyte injection, after which the new antibody capture event occurred before the next injection of myostatin. The data was analysed using both the 1:1 model and the Bivalent model inherent to the T100 machines analysis software (see Table 6). Both capture surfaces could be regenerated using 100 mM phosphoric acid, the work was carried out using HBS-EP as the running buffer and using 25° C. as the analysis temperature.
(In general: SPR reads the build-up and loss of mass on a sensor chip optically.)

Experiment [15] has the same target. In words: BIAcore T100, antibody captured on anti-mouse IgG (C1 chip), myostatin analyte, all curves 1:1 model. Here is the method:
as §2, §3

Experiment [16] shares this target. In words: ActRIIb receptor binding assay (Example 2.5), mean IC50. How it is done: Recombinant soluble ActRIIb (R&D Systems 339-RBB) was coated in wells of an ELISA plate at 1 μg/ml in carbonate buffer overnight at 4° C. Plates were blocked (see Block solution above at 2.3) and washed following standard ELISA protocols. In parallel, 2 nM biotinylated myostatin (in-house, as described in 1.1, biotinylated material) was pre-incubated with an antibody dilution series consisting of 10B3, 10B3C, and a negative control (IgG1 isotype control) for 2 hours at 37° C. The biotinylated myostatin:antibody reactions were then added to the ActRIIb coated plate for 1 hour at 37° C. Standard wash procedures were followed prior to addition of 1:1000 diluted streptavidin-HRP conjugate (Dako P0397) and a further 37° C. incubation for 1 hour. Plates were again washed and assayed at absorbance 490 nm following OPD substrate (Sigma) and acid stop solution treatment Inhibition curves and IC50 values for the inhibition of myostatin activity are shown in FIG. 5 and Table 8 respectively.
H2L2 C91S_G55S F100G_Y, the developability enhanced molecule with the highest apparent potency in the A204 assay was Fc-disabled (by making the following substitutions, using EU numbering system: Leu 235 Ala; and Gly 237 Ala) as exemplified in SEQ ID NO: 99.

B1: mouse monoclonal antibody 10B3 (antibody, V domains shown)
VH: EVQLQQSGPELVKPGASVKISCKASGYSFTGYFMHWVKQSHGNILDWIGNIYPYNGVSNYNQRFKAKATLTVDKSSSTAYMELRSLTSEDSAVYYCARRYYYGTGPADWYFDVWGTGTTVTVSS
VL: DIKMTQSPSSMYASLRERVTITCKASQDINSYLSWFQQKPGKSPKTLIYRANRLVDGVPSRFSGSGSGQDYSLTISSLEYEDMGIYYCLQCDEFPLTFGAGTKLELK
notes: Mouse IgG2a/kappa from hybridoma; also called 10B3 mouse parental; 10B3 parental
By IC50 is commonly meant the concentration that inhibits the measured activity by half. For B1, in experiment [1], the “Mean IC50, myostatin responsive reporter gene assay (A204 cells, luciferase)” value came out at 10 nM. For the same molecule, the “Mean IC50, A204 in vitro activity assay” value in experiment [2] is 8.5 nM. In addition, the binding result in experiment [3], in experiment [4], in experiment [5], in experiment [6], in [7] and in [8] was “no binding” throughout. Further, the binding result in experiment [9], in [10], in [11], in experiment [12] and in experiment [13] was “no binding” in each case. Further, the figures for the Kd in [14] and in experiment [15] were 5.9 nM and 1 nM, respectively. For the same molecule, the concentration for half-maximal inhibition (IC50) in [16] is 0.161 nM.
